Measurements published in publication PMC4036362, “Normal Activation of Discoidin Domain Receptor 1 Mutants with Disulfide Cross-links, Insertions, or Deletions in the Extracellular Juxtamembrane Region” (The Journal of Biological Chemistry, 2014).

B1: DDR1 mutant [human] / itself (parent)
chain: DADMKGHFDPAKCRYALGMQDRTIPDSDISASSSWSDSTAARHSRLESSDGDGAWCPAGSVFPKEEEYLQVDLQRLHLVALVGTQGRHAGGLGKEFSRSYRLRYSRDGRRWMGWKDRWGQEVISGNEDPEGVVLKDLGPPMVARLVRFYPRADRVMSVCLRVELYGCLWRDGLLSYTAPVGQTMYLSEAVYLNDSTYDGHTVGGLQYGGLGQLADGVVGLDDFRKSQELRVWPGYDYVGWSNHSFSSGYVEMEFEFDRLRAFQAMQVHSNNMHTLGARLPGGVECRFRRGPAMAWEGEPMRHNLGGNLGDPRARAVSVPLGGRVARFLQCRFLFAGPWLLFSEISFISDVVNNSSPALGGTFPPAPWWPPGPPPTNFSSLELEPRGQQPVAKAEGSPTAILIGCLVAIILLLLLIIALMLWRLHWRRLLSKAERRVLEEELTVHLSVPGDTILINNRPGPREPPPYQEPRPRGNPPHSAPCVPNGSALLLSNPAYRLLLATYARPPRGPGPPTPAWAKPTNTQAYSGDYMEPEKPGAPLLPPPPQNSVPHYAEADIVTLQGVTGGNTYAVPALPPGAVGDGPPRVDFPRSRLRFKEKLGEGQFGEVHLCEVDSPQDLVSLDFPLNVRKGHPLLVAVKILRPDATKNARNDFLKEVKIMSRLKDPNIIRLLGVCVQDDPLCMITDYMENGDLNQFLSAHQLEDKAAEGAPGDGQAAQGPTISYPMLLHVAAQIASGMRYLATLNFVHRDLATRNCLVGENFTIKIADFGMSRNLYAGDYYRVQGRAVLPIRWMAWECILMGKFTTASDVWAFGVTLWEVLMLCRAQPFGQLTDEQVIENAGEFFRDQGRQVYLSRPPACPQGLYELMLRCWSRESEQRPPFSQLHRFLAEDALNTV

Variants of: B1
Assay: disulfide cross-linking, nonreducing SDS-PAGE and Western blotting with anti-DDR1 antibodies
Settings: transiently transfected HEK293 cells, lysed in 30 mM NEM, read off a plot
[1] = 10 μg/ml collagen I for 90 min at 37 °C

Variant	screen value [1] [%]	screen value (unstimulated) [%]	screen value (10 μg/ml collagen I for 90 min at 37 °C, dimeric plus higher oligomeric forms) [%]	screen value (unstimulated, dimeric plus higher oligomeric forms) [%]
chain 1 G403C	30	32	–	–
chain 1 E394C	72	75	–	–
chain 1 I402C	62	65	–	–
chain 1 A391C	80	81	–	–
chain 1 C404A	–	4.5	–	–
chain 1 A393C	81	84	–	–
chain 1 G395C	–	73	–	–
chain 1 G403C C404A	35	37	–	–
chain 1 I400C	56	60	–	–
chain 1 A399C	59	61	59	61
chain 1 E394C C404A	81	83	–	–

Second part, the variant after the results:

screen value [1] [%]	screen value (unstimulated) [%]	screen value (10 μg/ml collagen I for 90 min at 37 °C, dimeric plus higher oligomeric forms) [%]	screen value (unstimulated, dimeric plus higher oligomeric forms) [%]	Variant
82	83	–	–	chain 1 V390C
61	60	–	–	chain 1 L401C
76	81	–	–	chain 1 K392C
85	–	–	–	chain 1 V390C C404A
82	84	–	–	chain 1 S396C
3.5	5	–	–	chain 1 L405C
81	82	–	–	chain 1 P397C
93	94	–	–	chain 1 T398C
4.5	3.5	–	–	chain 1 L405C C404A
